Sequences and labels used below:
B1: LINE1-full (parent)
chain: UACGUAGGUGGUUUUCCCCUGAUAGUGCUAAGGGGGCCUGGAAGUUUGGACUGGGCAGAGCUCAACACAGCGUGGCAAAGUGGCUGUGGCUAGACUGCCUCUCUGGAUUCCUCGUCACUCAGCAGGGCAUCUCUGAGAGAAAUGCC

The variants in the data set derive from B1. Nature of the data set: self-cleavage, relative activity (ratio to wild type); higher = more cleavage; in vitro, sequencing; the parent is a self-cleaving ribozyme.
On to A2G A69G, for which the self-cleavage was 0.32.

For A2G A69U, the self-cleavage is 0.15.

With A2U A59G, the self-cleavage turned out to be 0.

As for U1G U96C, the self-cleavage came out at 0.87.

Turning to U1C U52G, the self-cleavage came out at 1.33.

For the variant U1C U52C, the self-cleavage worked out at 1.38.

Regarding A2G U81C, the self-cleavage turned out to be 1.14.

For U1A U62G, the self-cleavage turned out to be 0.36.

On to C3U G8C, for which the self-cleavage amounted to 0.53.

Consider U1A U112A, for which the self-cleavage stood at 1.2.

In the case of U1C U130C, the self-cleavage is 1.04.

As to U1C U134C, the self-cleavage is 0.38.

As for U1C U20C, the self-cleavage was found to be 0.79.

Regarding A2G G53A, the self-cleavage was found to be 0.74.

On to U1C A31U, for which the self-cleavage was found to be 0.61.

Consider A2C A141G, for which the self-cleavage was 0.9.

For the variant C3A A138G, the self-cleavage came out at 0.92.

For the variant A2G U96C, the self-cleavage was 0.22.

With A2G U96G, the self-cleavage stood at 0.12.

Consider U1A U29C, for which the self-cleavage amounted to 0.84.

For the variant A2C A57U, the self-cleavage stood at 0.11.

As to A2G A57G, the self-cleavage amounted to 0.68.

As to C3U U12G, the self-cleavage is 1.13.

In the case of C3U U12C, the self-cleavage worked out at 0.57.

Regarding U1A A142G, the self-cleavage was 1.19.

For the variant C3U U26A, the self-cleavage turned out to be 1.04.

As to C3U U26C, the self-cleavage came out at 1.01.

Turning to C3U U26G, the self-cleavage came out at 0.87.

C3A A124U: the self-cleavage turned out to be 0.6.

As for U1A G34C, the self-cleavage was determined as 1.08.

With C3U A117C, the self-cleavage was 0.75.

For the variant C3U A117U, the self-cleavage is 1.31.

Consider C3U A117G, for which the self-cleavage stood at 0.45.

Regarding U1A A124G, the self-cleavage is 1.16.

Regarding U1C U26G, the self-cleavage stood at 0.72.

In the case of U1C U26C, the self-cleavage stood at 0.64.

C3A A64G: the self-cleavage was 0.

In the case of U1C G83U, the self-cleavage is 0.25.

Turning to A2G G54A, the self-cleavage was determined as 0.27.

For U1C C17U, the self-cleavage amounted to 0.87.

With U1G U46G, the self-cleavage came out at 0.33.

On to A2C C56U, for which the self-cleavage was 0.11.

For the variant U1A A30C, the self-cleavage is 1.44.

Regarding U1C A141G, the self-cleavage came to 0.97.

Regarding U1C A141U, the self-cleavage is 0.71.

In the case of C3G A79G, the self-cleavage was found to be 1.04.

Take U1C U104C: the self-cleavage was 0.68.

In the case of U1C U104A, the self-cleavage amounted to 0.75.

For the variant C3U A129G, the self-cleavage amounted to 1.62.

With U1C U81A, the self-cleavage worked out at 1.64.

In the case of C3U A142G, the self-cleavage came to 0.47.

Consider U1A A78G, for which the self-cleavage turned out to be 0.86.

For U1A A78C, the self-cleavage worked out at 1.65.

For the variant C3U U13C, the self-cleavage is 0.74.

With A2G U102C, the self-cleavage stood at 1.2.

In the case of C3U U20G, the self-cleavage is 0.53.

As for C3U U20A, the self-cleavage amounted to 0.83.

As for U1C U9A, the self-cleavage stood at 0.75.

As for A2G U13A, the self-cleavage came out at 0.99.

Regarding A2G U13C, the self-cleavage was 0.64.

With A2G U87A, the self-cleavage amounted to 0.32.

As for U1A G33U, the self-cleavage was 0.96.

Take U1C C146U: the self-cleavage stood at 1.08.

Regarding C3U U52C, the self-cleavage was 1.31.

As to A2U U119C, the self-cleavage was found to be 1.26.

As to A2G A92C, the self-cleavage came out at 0.13.

Consider A2G A92G, for which the self-cleavage is 0.

Consider U1C G144A, for which the self-cleavage was determined as 0.72.

As for A2U U46C, the self-cleavage was found to be 1.76.

Take U1C G48A: the self-cleavage is 0.9.

Turning to U1A A43G, the self-cleavage was determined as 0.81.

Consider C3G A69U, for which the self-cleavage was determined as 0.11.

Turning to A2G U26G, the self-cleavage is 0.21.

On to U1A A22U, for which the self-cleavage stood at 0.41.

Consider U1A A117G, for which the self-cleavage was 1.37.

On to C3G A31U, for which the self-cleavage turned out to be 0.98.

On to A2U U12A, for which the self-cleavage came out at 0.31.

In the case of C3G A78G, the self-cleavage worked out at 0.6.

In the case of C3U A67G, the self-cleavage came out at 0.

For U1C G139U, the self-cleavage amounted to 0.74.

In the case of C3U A50G, the self-cleavage is 0.33.

As to U1C G34U, the self-cleavage is 0.68.

Regarding C3U C118U, the self-cleavage came out at 1.25.

As to C3G A50U, the self-cleavage worked out at 0.16.

With U1C U45G, the self-cleavage is 0.48.

For the variant U1C U45C, the self-cleavage was determined as 0.91.

As for C3U U96C, the self-cleavage is 0.

Regarding C3G U52A, the self-cleavage came to 0.8.

For the variant A2U A43G, the self-cleavage was 1.07.

In the case of A2C A65U, the self-cleavage amounted to 0.17.

On to A2G U115C, for which the self-cleavage worked out at 1.43.

Turning to C3A C98A, the self-cleavage was found to be 0.28.

Take C3U U23A: the self-cleavage was 0.71.

A2G C71U: the self-cleavage came to 0.7.

As for A2G C84A, the self-cleavage was 0.26.

As for A2G C90U, the self-cleavage amounted to 0.15.

With C3A U39A, the self-cleavage worked out at 0.96.

Consider A2G U119C, for which the self-cleavage was 1.32.

On to A2G U119A, for which the self-cleavage stood at 0.96.

Turning to U1C U39A, the self-cleavage is 0.75.

Consider U1C U115A, for which the self-cleavage was found to be 0.98.

U1A U20C: the self-cleavage worked out at 1.64.

In the case of A2U A141G, the self-cleavage stood at 1.

With U1A G72A, the self-cleavage was 1.55.

Regarding U1C G106A, the self-cleavage came out at 0.73.

On to A2C A121G, for which the self-cleavage was 0.95.

Consider A2U U47A, for which the self-cleavage worked out at 0.85.

For C3U U15C, the self-cleavage came to 0.45.

Consider U1C U87A, for which the self-cleavage was determined as 0.23.

For U1C A124U, the self-cleavage worked out at 1.07.

Consider A2G A141G, for which the self-cleavage was found to be 0.78.

U1G U100C: the self-cleavage turned out to be 1.1.

Regarding A2G A24G, the self-cleavage worked out at 0.71.

U1C A79U: the self-cleavage is 2.16.

With C3U G127A, the self-cleavage was 0.89.

U1C A24U: the self-cleavage worked out at 1.2.

For U1C A59G, the self-cleavage was 0.1.

Consider U1C A59U, for which the self-cleavage stood at 0.56.

Turning to A2U U87A, the self-cleavage was 0.08.

A2G U12G: the self-cleavage worked out at 0.95.

With U1A A92U, the self-cleavage came to 0.32.

As to U1C U29G, the self-cleavage stood at 1.45.

In the case of U1C U96A, the self-cleavage amounted to 0.09.

Consider U1C U96C, for which the self-cleavage was 0.12.

As to U1A A2G, the self-cleavage stood at 1.2.

On to U1C C133U, for which the self-cleavage was determined as 1.16.

Consider A2U A138G, for which the self-cleavage turned out to be 1.06.

As to C3U U45C, the self-cleavage came out at 0.8.

Turning to C3U U45A, the self-cleavage was 0.93.

As to A2U C56A, the self-cleavage was 0.03.

Take C3U C123U: the self-cleavage was 0.63.

On to U1C U132C, for which the self-cleavage turned out to be 0.97.

As to A2G U109C, the self-cleavage came out at 1.39.

In the case of U1C U13C, the self-cleavage came to 0.62.

Take U1C U13A: the self-cleavage is 0.69.

For A2U U85G, the self-cleavage was determined as 0.14.

As to U1C G41A, the self-cleavage is 0.52.

As to U1C A78C, the self-cleavage amounted to 1.46.

Take U1C A78G: the self-cleavage came out at 1.38.

For the variant A2U U52C, the self-cleavage amounted to 0.67.

As for U1C C68U, the self-cleavage was found to be 0.13.

Take U1A A31U: the self-cleavage is 1.11.

C3U A31U: the self-cleavage stood at 0.37.

In the case of A2U U9A, the self-cleavage worked out at 0.86.

On to A2U U9C, for which the self-cleavage turned out to be 0.7.

Regarding C3A A69G, the self-cleavage was 0.31.

For C3U U39C, the self-cleavage was 0.79.

As for C3A U9C, the self-cleavage is 1.11.

As for U1C G7U, the self-cleavage came to 0.75.

Take A2G: the self-cleavage was found to be 0.85.

As for A2C, the self-cleavage worked out at 1.24.

Regarding A2U, the self-cleavage worked out at 0.98.

As for A2G U29C, the self-cleavage turned out to be 0.81.

Turning to U1A A136G, the self-cleavage stood at 1.71.

For U1A U14A, the self-cleavage turned out to be 0.89.

Take U1A U14C: the self-cleavage came out at 1.71.

Turning to U1A U87A, the self-cleavage turned out to be 0.13.

For U1C C116A, the self-cleavage stood at 1.42.

With A2G U5A, the self-cleavage stood at 0.42.

Take C3A U13C: the self-cleavage was 1.15.

Take U1A C37G: the self-cleavage was determined as 0.74.

Regarding A2G A59G, the self-cleavage amounted to 0.39.

With U1A U119C, the self-cleavage was determined as 1.73.

With A2G U14C, the self-cleavage is 0.93.

As for U1C G89U, the self-cleavage was 0.

Turning to U1C G36A, the self-cleavage stood at 1.06.

In the case of A2G U85A, the self-cleavage came to 0.25.

The record behind these values is the RNAGym collection of RNA variant scans (doi:10.7554/elife.90254).
